Measured values: patent US20190071490A1, “Preventing Post-Ictal Headaches” (Beth Israel Deaconess Medical Center, Inc., priority 2017, published 2019)

System: CSD-sensitized central trigeminovascular neurons (HT, WDR) in the spinal trigeminal nucleus
Experiment: Activation and sensitization of trigeminovascular neurons by cortical spreading depression (CSD)
Assay type: in vivo, rat
Details: for mean firing rate of HT neurons after CSD: 6 hours after 30 mg/kg i.v.; for mean firing rate of HT neurons before CSD: 4 hours after 30 mg/kg i.v.
Procedure: Cortical spreading depression (CSD) was induced mechanically by inserting a glass micropipette (tip diameter 25 μm) about 1 mm into the visual cortex for 10 sec. At a propagation rate of 3-5 mm/min, a single wave of CSD was expected to enter the neuronal receptive field within 1-2 min of cortical stimulation. For verification of CSD, cortical activity was recorded (electrocorticogram) with a glass micropipette (0.9% saline, ˜1 megohm, 7 um tip) placed just below the surface of the cerebral cortex (approximately 100 μm). The electrocorticogram electrode was positioned about 6 mm anterior to the visual cortex.
It was diluted in saline to a final dose of 30 mg/kg and administered intravenously (bolus injection, total volume 0.6-0.7 ml). A corresponding human IgG2 isotype control antibody (isotype-conAb) was also diluted in saline to a final dose of 30 mg/kg and administered intravenously (bolus injection, total volume 1.6-2.0 ml).
The experimental protocol included two parts. The first part was designed to compare CGRP-mAb vs isotype-conAb effects on spontaneous and induced activity of naïve trigeminovascular neurons, and the second part was designed to test CGRP-mAb vs isotype-conAb effects on the activation and sensitization of trigeminovascular neurons by CSD. Both parts included sampling of WDR and HT neurons in male and female rats. In the first part, the baseline neuronal profile was established by (a) mapping the dural, cutaneous and corneal receptive field; (b) measuring responses (mean spikes/sec) to mechanical stimulation of the dura (with a fixed force), skin (brush, pressure, pinch) and cornea (brush), and (c) measuring spontaneous firing rate (recorded over 30 min prior to treatment). Once the baseline was established, CGRP-mAb or isotype-conAb were administered and receptive fields were remapped, neuronal responses to stimulation of the dura, skin and cornea were re-examined, and the spontaneous activity rate was re-sampled at 1, 2, 3, and 4 hours post-treatment. The resulting values for each measure were then compared with the respective baseline values obtained before treatment. In the second part, CSD was induced 4 hours after administration of CGRP-mAb or isotype-conAb and 2 hours later (i.e., 6 hours after treatment) receptive field size, spontaneous activity rate, and response magnitude to stimulation of the dura, skin and cornea were measured again. The resulting post-CSD values for each measure were then compared with the respective pre-CSD values obtained at the 4-hour post-treatment time. This part was initiated only in cases in which the physiological condition of the rats (heart rate, blood pressure, respiration, end tidal CO2) and the neuronal isolation signal (signal-to-noise ratio ≥1:3) were stable at the 4-hour post-treatment time point.
To calculate the response magnitude to each stimulus, the mean firing frequency occurring before the onset of the first stimulus (30 min for spontaneous activity, 10 sec for mechanical stimulation of the dura, skin and cornea) was subtracted from the mean firing frequency that occurred throughout the duration of each stimulus. […] A neuron was considered activated when its mean firing rate after CSD exceeded its mean baseline activity by 2 standard deviations of that mean for a period >10 min, which translated to ≥33% increase in activity. […] Mean firing rates of respective values were compared using nonparametric statistics (Wilcoxon signed-ranks test). Two-tailed level of significance was set at 0.05.

[1] = male and female rats, case-by-case analysis

B1: G1: humanized monoclonal anti-CGRP antagonist antibody; heavy chain SEQ ID NO:11, light chain SEQ ID NO:12 (antibody)
heavy: EVQLVESGGGLVQPGGSLRLSCAASGFTFSNYWISWVRQAPGKGLEWVAEIRSESDASATHYAEAVKGRFTISRDNAKNSLYLQMNSLRAEDTAVYYCLAYFDYGLAIQNYWGQGTLVTVSSASTKGPSVFPLAPCSRSTSESTAALGCLVKDYFPEPVTVSWNSGALTSGVHTFPAVLQSSGLYSLSSVVTVPSSNFGTQTYTCNVDHKPSNTKVDKTVERKCCVECPPCPAPPVAGPSVFLFPPKPKDTLMISRTPEVTCVVVDVSHEDPEVQFNWYVDGVEVHNAKTKPREEQFNSTFRVVSVLTVVHQDWLNGKEYKCKVSNKGLPSSIEKTISKTKGQPREPQVYTLPPSREEMTKNQVSLTCLVKGFYPSDIAVEWESNGQPENNYKTTPPMLDSDGSFFLYSKLTVDKSRWQQGNVFSCSVMHEALHNHYTQKSLSLSPGK
light: EIVLTQSPATLSLSPGERATLSCKASKRVTTYVSWYQQKPGQAPRLLIYGASNRYLGIPARFSGSGSGTDFTLTISSLEPEDFAVYYCSQSYNYPYTFGQGTKLEIKRTVAAPSVFIFPPSDEQLKSGTASVVCLLNNFYPREAKVQWKVDNALQSGNSQESVTEQDSKDSTYSLSSTLTLSKADYEKHKVYACEVTHQGLSSPVTKSFNRGEC
case-by-case analysis
  difference between CGRP-mAb and isotype-conAb in HT neurons activated by CSD: 86%
  difference between CGRP-mAb and isotype-conAb in WDR neurons activated by CSD: 2%
Female rats
  HT neurons with expansion of dural receptive fields after CSD (number/total): 0/6
  HT neurons with expansion of facial receptive fields after CSD (number/total): 0/6
  response of HT neurons to dural indentation with VFH before CSD: 10.5±1.6 spikes/sec
  mean firing rate of HT neurons before CSD: 3.3±1.7 spikes/sec
Female rats, 6 HT neurons, p=0.51
  response of HT neurons to brushing the cornea after CSD vs before: remained unchanged
Female rats, 2 hours after CSD
  mean firing rate of HT neurons after CSD: 5.0±3.4 spikes/sec
Female rats, 2 hours after CSD, 6 hours after administration
  response of HT neurons to dural indentation with VFH after CSD: 8.1±6.4 spikes/sec
Male and female rats, 2 hours after CSD, 6 hours after administration
  neuronal responses of HT neurons to brush, pressure and pinch after CSD vs before: remained unchanged
[1]
  HT neurons activated by CSD (number/total): 2/14
  WDR neurons activated by CSD (number/total): 5/13
Male rats
  HT neurons with expansion of dural receptive fields after CSD (number/total): 2/8
  HT neurons with expansion of facial receptive fields after CSD (number/total): 2/8
  response of HT neurons to corneal stimulation after CSD: 9.4±1.8 spikes/sec
  response of HT neurons to corneal stimulation before CSD: 10.8±3.3 spikes/sec
  response of HT neurons to dural indentation with VFH before CSD: 1.8±0.6 spikes/sec
  mean firing rate of HT neurons before CSD: 1.2±0.6 spikes/sec
Male rats, 2 hours after CSD
  mean firing rate of HT neurons after CSD: 1.9±1.5 spikes/sec
Male rats, 2 hours after CSD, 6 hours after administration
  response of HT neurons to dural indentation with VFH after CSD: 1.9±1.5 spikes/sec
